Laboratory results from the DeepSol protein solubility set.

Assay: soluble on expression in E. coli; label from the status in PepcDB or PDB records

| Sequence | soluble on expression in E. coli |
| --- | --- |
| MSVEPNHYLEITRSHVHQIYRELETSGKVITVDLVRKPYYDVDEDNKTLLQVFREHNEQSRKLIGKDFISKTVQRYETTTRYLEEFIKKEYQLSDIALNNLEANFISKFDAFLKIEKGCAQNSAITRLKNLKKIIRIALENDWIKKDPFAYYRFKLKETYPEFLTMDEIKIILAKEFTIKRVEQVRDVFIFCSYTGLAFSDVKDLSPEHLLKDNKGELWIKIFLSFHSSVFSSKNLHRLNTSLAKSMIQIKF | not soluble |
| MEKKTNCIQNEEQKKEKELIAEKAAKAGFVNRLYVNIGQKVGVVELTKLEPRFERNIDKLTSYHNLIYKIVNVIELQVQFMPKAMAKKAVLCAPGENPWEVLGGWLNYLGKNQFDGQHSKMLEKYSSACGRIAQKEIQVQKRTRSHLIKKMRLYTGEESEILNSNVENLNNLLHAIDDSRHHVKSSKTTKEVKAKGETYRKAINAFNETANEVQALIDEVAMVVPLHENEFLKFSREASVYHDTVHNSLSEVIFRLGYHVKKH | not soluble |
| MAEILERSGYLVKVRVEVPADRVKASYEALLKDLASRVRVPGFRPGKAPLKVVEARLGREALLQDLKERLVEETYPEAVRELGLSPVAARVVEQDLSEGEGFRYVAEVENYPEVRLPDWRSFALEVSPPEVTEEMVEKALEELRQRYAELVPVEREAQEKDHLFVRTEEGAEFPIDLAKALPHVREALLGKKAGDVVMVPVLNDKGEKVREVRTEVLEVKTLKLPELDEEFAKTLEAESLEDLKNRVRESLKRQAERAYEEARERAFLEKLAEGLEVEIPPSMLRAEERHLLEHLAEDLYRQGISLEAYLEALKEKGELEKFQEDLRKEAEKRVRIALAREKLAEELNPEVSEEEWQAYLQAAARAYGVAVQDLRRQFGEEGLARLKERLRQDKAVQEALKALG | soluble |
| MERINFIFGIHNHQPLGNFGWVFEEAYNRSYRPFMEILEEFPEMKVNVHFSGPLLEWIEENKPDYLDLLRSLIKRGQLEIVVAGFYEPVLAAIPKEDRLVQIEMLKDYARKLGYDAKGVWLTERVWQPELVKSLREAGIEYVVVDDYHFMSAGLSKEELFWPYYTEDGGEVITVFPIDEKLRYLIPFRPVKKTIEYLESLTSDDPSKVAVFHDDGEKFGVWPGTYEWVYEKGWLREFFDAITSNEKINLMTYSEYLSKFTPRGLVYLPIASYFEMSEWSLPAKQAKLFVEFVEQLKEEGKFEKYRVFVRGGIWKNFFFKYPESNFMHKRMLMVSKAVRDNPEARKYILKAQCNDAYWHGVFGGIYLPHLRRTVWENIIKAQRYLKPENKILDVDFDGRAEIMVENDGFIATIKPHYGGSIFELSSKRKAVNYNDVLPRRWEHYHEVPEATKPEKESEEGIASIHELGKQIPEEIRRELAYDWQLRAILQDHFIKPEETLDNYRLVKYHELGDFVNQPYEYEMIENGVKLWREGGVYAEEKIPARVEKKIELTEDGFIAKYRVLLEKPYKALFGVEINLAVHSVMEKPEEFEAKEFEVNDPYGIGKVRIELDKAAKVWKFPIKTLSQSEAGWDFIQQGVSYTMLFPIEKELEFTVRFREL | soluble |
| MSPIPLPVTDTDDAWRARIAAHRADKDEFLATHDQSPIPPADRGAFDGLRYFDIDASFRVAARYQPARDPEAVELETTRGPPAEYTRAAVLGFDLGDSHHTLTAFRVEGESSLFVPFTDETTDDGRTYEHGRYMDVDPAGADGGDEVALDFNLAYNPFCAYGGSFSCALPPADNHVPAAITAGERVDADLEHHHHHH | soluble |
| MAHHHHHHMSVSRFRHSTGHVAKPQRHLLNVTSSTALWDGSNTISCNDKFVAVPWQTFGGTAVFKHDTFGRLAPNPPLVLGQKGQIIDVKFDPFNDQKLFTASEDGSIFGWGIPAEGLQSNILSPLVELKGHNKKCGIISFHPSANGVLASAGVDRVIKVWDVERGTAVNTISSLSDYATGLEWNLRGSLFCVASRDKTLRVIDPRDCTVVSSVESHASARSQRCIWCKRKDTIMTLGCSKSQQRQIKLWDTRKMESPYSVTELDQSSAAFIPMYDEDLNLLILGSKGENNVKCFELMNEGLTFSYEVNSNDPMKGLCMMPKWSLDVKKCEFGRLYQLTYHSLFTIEMLLPRKQSCTEFQGDVFPSTFADHSAMSADEFFRGANADPREYDLSGMFDGHSPRLMGGSTPSPEKLPVAVQAAKPLMEAPKGETTTGREKSSVSVPESSEATSAPSDDKTEKHADPCADMTQRDILDKQRRLQELSEKVRTCHHEISALRKALHEKEAEMLQVLEDIQSI | not soluble |
| PATDWLSAETFESDLDETRVPEVPSSLHVRPLVTSIVVSWTPPENQNIVVRGYAIGYGIGSPHAQTIKVDYKQRYYTIENLDPSSHYVITLKAFNNVGEGIPLYESAVTRPHT | soluble |
| MGSDKIHHHHHHMNHTSADTTLRAFAQLIAEGTCLPAEERAPGQLKTGVDLGTANIVLSVVDANNRPVTGAMFPSTVVRDGIVVDYVGAVSVVRRLKAELEDRLGCPLTFAGTAIPPGILAGNVKAIANVVEAAGFEVADVSDEPTAASRVLGLREGAVVDVGGGTTGISILKNGEVVFTDDEATGGTHMTLVLAGAHGVSFEEAEAMKKDTAAARDVFAVVQPVVEKMASIVKRCLKGYDVETVYVVGGACTFDQFEQVFRKEIGLTIVKPAEPLLVTPLGIAMYGATPGEGAL | not soluble |
| MAHHHHHHMSMKKKMTKPFRTVVHLPVEEARGAIVRMIRRHNAVVIVGETGSGKTTQIPQYVWDDLVSREPPEQQGIVGCTQPRRVAAVSIARHVAKQRGGSVGAEVAYAVRFDDTCSRQTKIKYMTDGILLREIQTDPDLSHYRCLLLDEAHERTLHGDVLFGLLKDIVRRRKKTLTIVVMSATLNAEHFSKFWWNAPIGVVHGRLYPVTIFHTVEPQADYVEAAVSTLLQIHEKEEPGDVLCFLTGQEEIEDAKRILERRMKVMPSTLQEFMILTLYSAMPYEQQLRVFEPPLPGKRRIILSTNIAETSITVEGIRYVVDSGVVKAKFFSSKSGMEVLSEVDVSKAQATQRAGRAGRMTAGKCFRLYTAQAFESLAENTVPEIQRSSLISVVLEMKSLRIDRIMDFEFMDAPNPKAVVRAEETLMLLGALDRQGHITRLGQRLIDFPIEPMAAIVLLAGKALGVERDVTIAISMTMTENLFFTSREAKDGADRCKAAFAKSAGDHATLLGIYYAYKRVPKDQRKMWCESNAVNPSQMLKAEDVMTQLGAILNEHSDEELLSTMVRRSPNLAGNGAALHRKRRRDSEKDASGDDETSELLKGQTSGMVKLRDFELIRRALCYGFSLNAAFYNAKIGNYQTVVGQQVVHLHPSSVLFYQRKKPALVVFNSVVRTTRRYMKDVSVVQEEWLRDAASFLRPVA | not soluble |
| MRFVDFFNALLEGKVIGQKCGDCGSYTCPPKATCDNCGSRNLEAVELSGKGVIRTFTTTYVAPSGYTNEAPYTVAMVELDEGPWIVGRIDLPNEEIEKFGQDLIGARVSVYGKEFPTEPFYPDKKRRVVPMFRLEGLEHHHHHH | soluble |
| MGSDKIHHHHHHMLEFPALRPFLWSGRYNRPLMPLTYLTRIAQTPAPTFQEEARAELIARLWSDLGYVTERDEVGNVLTRITPPGTEGRPALLLAAHLDTVFGGQTDVTVHDEGQRLRGPGVGDNSASLAVVTAMLRDFRTAPPLLRRPLWVAANVGEEGLGDLRGAKHLLAAHRPQLGAFVAVDGYLGVAVTQAVGVRRYRAQFVGPGGHSWGDQAPSALHALGLAISGLYALHLPAQPRTTLNVGTAAGGNSVNSIAGQAELLLDLRSLGADELAALDSRAQDVLHRAARDAGVSLRLERVGDRPGGDLHTGALLGMAHAAAREVRVDLRLAASSTDANAAAPHVLPALAFGVYRGGNAHREDEWVEKRSLAPGLTALKRLVALYQAAPLA | not soluble |
| MGSDKIHHHHHHMVRMEEPAVKQGFLHLQQQQTFGKKWRRFAAVLYGESGCALARLELQDVPEKTRRGEATRKVVRLSDCLRVAEVGSEASSPRDTSAFILETKERLYLLAAPSAERSDWIQAICLLAFPGQRKGSPGLEEKSGSPCMEENELYSSSTTGLCKEYMVTIRPTEASERCRLRGSYTLRTGVSALELWGGPEPGTQLYDWPYRFLRRFGRDKATFSFEAGRRCLSGEGNFEFETRHGNEIFQALEKVITVQKNATPSGPPSLPATGPMMPTVLPRPESPYSRPHDSLPSPSPGTLVPGMRPGAPEGEYAVPFDTVAHSLRKSFRGLLTGPPPHLPDPLYDSIQEDPGAPLPDHIYDEPEGVAALSLYDRTQRPSGETWREQATADGGPSSLQQDSSVPDWPQATEYDNVILKKGP | not soluble |
